Assay: soluble on expression in E. coli; label from the status in PepcDB or PDB records

| Sequence | soluble on expression in E. coli |
| --- | --- |
| SEKRFKVYVYEEGEPPLVHDGPCKSVYAVEGRFITEMEKRRTKFRTYDPNQAYVYFLPFSVTWLVRYLYEGNSDAKPLKTFVSDYIRLVSTNHPFWNRTNGADHFMLTCHDWGPLTSQANRDLFNTSIRVMCNANSSEGFNPTKDVTLPEIKLYGGEVDHKLRLSKTLSASPRPYLGFFAGGVHGPVRPILLKHWKQRDLDMPVYEYLPKHLNYYDFMRSSKFCFCPSGYEVASPRVIEAIYSECIPVILSVNFVLPFTDVLRWETFSVLVDVSEIPRLKEILMSISNEKYEWLKSNLRYVRRHFELNDPPQRFDAFHLTLHSIWLRRLNLKLT | soluble |
| MSLSLLLQQHLSQPWRFLDHTSFGPTFQALQSFAYDDTLCTSIGKSQSPPTLRAWVHHNTVVLGIQDSRLPQIKAGIEALKGFQHDVIVRNSGGLAVVLDSGILNLSLVLKEEKGFSIDDGYELMYELICSMFQDHREQIEAREIVGSYCPGSYDLSIDGKKFAGISQRRIRGGVAVQIYLCVSGSGAERAKMIRTFYDKAVAGQPTKFVYPRIKPETMASLSELLGQPHNVSDVLLKALMTLQQHGASLLTESLSADEWLLYEQHFARISERNEKLLAEEGHHHHHH | soluble |
| TVRVRLAPSPTGNLHIGTARTAVFNWLYARHRGGKFILRIEDTDRERSRPEYTENILEGLQWLGLTWDEGPYFQSDRLDLYRQAIQTLLDKGLAYYCYCTPEELEALRAEQKAKGQAPRYDNRHRHLTPEEQAAFEAAGRTPVIRFKIEDDRQIEWQDLVRGRVSWQGADLGGDMVIARAAPRGEIGYPLYNLVVVVDDIAMGITDVIRGEDHIGNTPKQILLYEALGATPPNFAHTPLILNSTGQKLSKRDGVTSISDFRAMGYLAPALANYMTLLGWSPPEGVGELFTLDLAAKHFSFERINKAGARFDWDKLNWLNRQYIQQLEPEEFLAELIPLWQGAGYAFDEERDRPWLFDLAQLLQPGLNTLREAIDQGAVFFIPSVTFDSEAMAQLGQPQSATILAYLLEHLPAEPALTVAMGQQLIQQAAKAAGVKKGATMRTLRAALTGAVHGPDLMAAWQILHQRGWDEPRLAAALKQAQTTSLEHHHHHH | soluble |
| MAHHHHHHMMAHRCAFQTIASPALTQREVEFTKSAWIAGLRPDQRGAQQLREVNVDFPLLSRDVSCVRCGGTIVTAAIACELVEPFPCRPKHGIIDFSVRQPYTERDSSAKTAELKKLTAFLERLIKGGGVVDTEGLCVLPGRRVWSISVDVTVLNDEGNVTDVAVWATVAVLLHYRRPELTIRGDSVILHPTHERDPVPLSIHHTPLSFSFAITMAPGDRNKLARGRRDSQEALEVVVDPTFAEATAASSSVVVAVNAEGQVCSVSKSEGSCIHLNEVNHCMETASLLAPHILSLIRDAMAAHDKRRQEVLKRMFLWAQKRSGVTSEATEPEPAKKLKTET | not soluble |
| MSLMRIVFDIGGSVLVPEKPDVDFITKLGYELTKISEDHEIAIVVGGGKVAREYIEVASKFNTNETFKDYLGIQITRANAMLLIAALKERAYPQVVSDFWEAWKAIQLKKIPVMGGTHPGHTTDAVSALLAEFLSADLLVVITNVDGVYTEDPKKNPNAKKIPKMKAKDLVDIVSREAGKAGVSTVIDPLAAKIIMRSGIKTYVIGKEDALKLFDVIKGNHNGTIIEPEGHHHHHH | soluble |
| SMSQIMYNYPAMLGHAGDMAGYAGTLQSLGAEIAVEQAALQSAWQGDTGITYQAWQAQWNQAMEDLVRAYHAMSSTHEANTMAMMARDTAEAAKWGG | soluble |
| MKKLMITQEAGVATVLIKNPPVNILTIDLINELNAFILSLKDDRETKVVVFKSFHEAFFIAHLDLNVINGTSGGQAASIEFNHMIANIKAMKQLSIAVVDGVARGGGNEFVMACDLAYGTENSAFAQPELYINIPTGGQGAVQFARRLGKGKALQALLTGADFTAQQAETLNIITQFVLKAELDVFLAQLLSVIVGWEIRDIVMYKEIIAASIKDEAVGTELELRYFLERAREEKTQTIIAAFLKHGGQTEREAKDMQGIFVDTAAELSK | not soluble |
| MSLAFDTLFLNARFDGGTRHHIAVKDGRIAAITSVDQPPAGAETIDLKDALVVPGFVEGHIHLDTSFYGDAWRPHKPCADGFNVHERVAFQAQNMAEAAPMDVRARNQLDLCIGHGTTQMRSHVIVDGSVGLKSLETILRVREEYNGLIDIQLVAFPQSGILSSPGTAQLLDEAIGLGANLVGGLDPASFDRDVEKHLDVVFGVANKHGVDIDIHLHDMGTLGAFEIEQIAARTRALGMEGRVAVSHAYGLGDIPADYLKKVAEILARSGVAIMTNAPGARPFPPILALRNAGVTVFSGNDNIRDSWWPYGDGDMLRRATTLGYRSGFNIDEELRAAFDVVTASGAKALRLEGYGLRIGAKADFVALNAEHVPEAVVAVPQGRSVYKDGRLVAANGRIVGKSGEGHHHHHH | not soluble |
| MDSSVPMIDLSSGDDEEVEVAMRRSYLLPPVPERPDGFPSLLFGNGNLSRSTLSINQEISMAPSPFSEITVSSQRPLVARSGSNSSEHNLQIKEAVKKKPVADIAHVSGTFVCVCVRGAQKNFYQKYLIATPSIPKLNTFE | soluble |
| MAHHHHHHMGDESNAIGQEALLYDKMFRVMRTVGEMMCDRKYQVADKIIPSSVEEFKDWYTDPREGVIYRDRMTVPCERIGVSQRSRAMVFFSEGLSMETMKRYHTQASEANCDRVIIVVQGRINAIVKRHVEDINRSSLGLKIQLFDEDDLVVNITHHELVPKHTQLEDEEVKEMLQAHALELSALPRILSTDPVAAYLGLERGRVVRIERKSMSAGFYVTYRQVV | not soluble |
| MSLLFLAMAPKPKPWVQTEGPEKKKGRQAGREEDPFRSTAEALKAIPAEKRIIRVDPTCPLSSNPGTQVYEDYNCTLNQTNIENNNNKFYIIQLLQDSNRFFTCWNRWGRVGEVGQSKINHFTRLEDAKKDFEKKFREKTKNNWAERDHFVSHPGKYTLIEVQAEDEAQEAVVKVDRGPVRTVTKRVQPCSLDPATQKLITNIFSKEMFKNTMALMDLDVKKMPLGKLSKQQIARGFEALEALEEALKGPTDGGQSLEELSSHFYTVIPHNFGHSQPPPINSPELLQAKKDMLLVLADIELAQALQAVSEQEKTVEEVPHPLDRDYQLLKCQLQLLDSGAPEYKVIQTYLEQTGSNHRCPTLQHIWKVNQEGEEDRFQAHSKLGNRKLLWHGTNMAVVAAILTSGLRIMPHSGGRVGKGIYFASENSKSAGYVIGMKCGAHHVGYMFLGEVALGREHHINTDNPSLKSPPPGFDSVIARGHTEPDPTQDTELELDGQQVVVPQGQPVPCPEFSSSTFSQSEYLIYQESQCRLRYLLEVHL | soluble |
| MSTHNTHINETMQRNGRNNMAEHRGGSGNFAEDREKASDAGRKGGQHSGGNFKNDPQRASEAGKKGGQQSGGNKSGKS | not soluble |
| MRRRRRRDGFYLAPDFRHREAEDMAGVFDIDLDQPEDAGSEDELEEGGQLNESMDHGGVGPYELGMEHCEKFEISETSVNRGPEKIRPECFELLRVLGKGGYGKVFQVRKVTGANTGKIFAMKVLKKAMIVRNAKDTAHTKAERNILEEVKHPFIVDLIYAFQTGGKPYLILEYLSG | soluble |
| GSMSLNDFLSSVLPVSEQFEYLSLQSIPLETHAVVTPNKDDKRVPKSTIKTQHFFSLFHQGKVFFSLEVYVYVTLWDEADAERLIFVSKADTNGYCNTRVSVRDITKIILEFILSIDPNYYLQKVKPAIRSTCPREILTKICLFTRPASQYLFPDSSKNSKKHILNGEELMKWWGFILDRLLIECFQNDTQAKLRIPGEDPARVRSYLRGMKYPLWQVGDIFTSKENSLAVYNIPLFPDDPKARFIHQLAEEDRLLKVSLSSFWIELQERQEFKLSVTSSVMGISGYSLATPSLFPSSADVIVPKSRKQFRAIKKYITGEEYDTEEGAIEAFTNIRDFLLLRMATNLQSLTGKREHRERNQPVPASNINTLAITMLKPRKKAKALPKT | soluble |
| MANDDLQQRLDKGMYGTPLVNPEEQHKYMGTFRERCRLSMTVAEMKDAQNQKHLLEELAKHPEVTVLLNGEISSDLQSTYIKLLNQHGANFKIVNNFVENNPDSLGLLLAEKHAVDEPVIDVTEKYPQATETPKEEPTAKKSFWQKLFHS | not soluble |
| PATCPIVPGQEMIIEISKGRSGLGLSIVGGKDTPLNAIVIHEVYEEGAAARDGRLWAGDQILEVNGVDLRNSSHEEAITALRQTPQKVRLVVYRDEAHYRDEE | soluble |
| MVFYFKARPDAGDYTIFMGLDKFENEELIKYGFPEDVWFHVDKMSSAHVYLRLHRGQSFDDISEGVLEDCAQLVKANSIQGNKVNNVDVVYTPWSNLKKTASMDVGQVGFHNSKMVRTIRVEKRVNEIVNRLNKTKVERTPDLRAEREAVNAAERAERKQHLREKKKREEIDRLEKERQSEMRSYKGLMVTDKMTSNKDIASSNKSLQELEDDFM | soluble |
| MKEHQKLEHPAQVKTKSFEDAAFEMLSTVSPIKLPRDEIPFDSVREIVLGEIIKSKQRNSRSSANDRRNMDDLLDEAPSSSSSSSHVGESSSSNLDRGTMTDEGCTDIGGAPRPIAARLYGDCTRSSSTSTSSAAGPSCSSDVATVENSKKKPLNYREKRLAEIRAARLKKYRENAEIVEFKCEENCLAEVFTKYYLELLDDEAGPANLYYRVVESLDVYFRVKTWESNCPKLLCEFLCDHILKTCQQLNELHESKNMTDEWRARECQIQVLLTLHVYVVTDERRWLDEAINKLRMIYISVGAERLRTFVEEPVTDIYLELIGDGLATIYDELCINLPADLIQYDTGLFKMTETDDSLVVKRRNGAANRLEQMLNETSADLGVGGVERARRTSTEAAAPQRRSLKRRNIEDVPKELLSPARTTRTSRSDYKHFFVEDTPDEKYQKKTTKVEEIEMNEEEDGEIGAESTSKRKTVTIKEEIDEEVKQTPMAKLRASAKLNGKRCSKRLSDLVKLSEERTQVTKKARENLNKLLEKANTPIRSVTRPIRKSVLFGSAGSMSSSPATTKCARGTSSRTSLLNKFSEMEEKKKSPLAVDTSDGHIIHTPSSASESTTPVLRDRATRRRTTRFNDKNYQPNVLKQEMHDPEFDAMESSMASPSKRTTKNSSTAASASTTPVSKWTDRQLKRQLGLTREDLNRYREAMLTTGERNRNKNVKINWESAQVNRAGRVKGAGASEDGTPIFGIARRNVRTMICHVLLNDTNPDTSFDWNKVKFDDFCGKPRTRQFQSLIQKPEAYMESLKQKYIESRVSSAKRMRSNDGASTSSRPAKRRRSNASSPKKQTASSSASSTKSLKSPVKLEAFDDFGFESEADD | soluble |
| MSLKMANPKYKRILIKLSGEALAGERGVGIDIQTVQTIAKEIQEVHSLGIEIALVIGGGNLWRGEPAAEAGMDRVQADYTGMLGTVMNALVMADSLQQVGVDTRVQTAIAMQQVAEPYVRGRALRHLEKGRIVIFGAGIGSPYFSTDTTAALRAAEIEADAILMAKNGVDGVYNADPKKDKTAVKFEELTHRDVINKGLRIMDSTASTLSMDNDIDLVVFNMNQSGNIKRVVFGENIGTTVSNNIEEKEEGHHHHHH | soluble |
| MGSDKIHHHHHHMDTDWSNLAVRLERLLERFERIIDRHDPVLPRDPAFFDGAIAFRWRRSGEQGTFEPVTHPHLPDPADLVGIDLVREDLIRNTAQFMDGYPANNVLLWGERGTGKSTCVKGMLRLFADRGLRLVEVQRDDLMSLPALIAALRSVPRRFILFCDDLSFGEGEGGYRELKALLEGSIEAKPTNILFYATSNRRHLLPERMEDNLSSEIHPEEAVSEKLSLADRFGMALGFYPFSQDVYLSIVERYAEKFALPMEREALRKEAHLWAMYRGSRSGRSARQFIDDLAGRLGVRLNDR | not soluble |
| MSRKKMGLLVMAMGTPYKEEDIERYYTHIRRGRKPEPEMLQDLKDRYEAIGGISPLAQITEQQAHNLEQHLNEIQDEITFKAYIGLKHIEPFIEDAVAEMHKDGITEAVSIVLAPHFSTFSVQSYNKRAKEEAEKLGGLTITSVESWYDEPKFVTYWVDRVKETYASMPEDERENAMLIVSAHSLPEKIKEFGDPYPDQLHESAKLIAEGAGVSEYAVGWQSEGNTPDPWLGPDVQDLTRDLFEQKGYQAFVYVPVGFVADHLEVLYDNDYECKVVTDDIGASYYRPEMPNAKPEFIDALATVVLKKLGR | soluble |

From the DeepSol protein solubility set
